Patent US10087225B2, “Formulation of MK2 inhibitor peptides” (MOERAE MATRIX, INC., priority 2015, dated 2018)

Key:
Assay in all cases: Kinase Profiling Assay
Type in all cases: biochemical
Lyn(h) = Lyn(h) (Homo sapiens, UniProt P07948); conditions: 100 μM
BTK(R28H)(h) = BTK(R28H)(h) (Homo sapiens, UniProt Q06187, R28H)
NEK7(h) = NEK7(h) (Homo sapiens, UniProt Q8TDX7); conditions: 100 μM
Flt3(D835Y)(h) = Flt3(D835Y)(h) (Homo sapiens, UniProt P36888, D835Y)
Pim-2(h) = Pim-2(h) (Homo sapiens, UniProt Q9P1W9); conditions: 100 μM
Pim-2(h), sequence (Q9P1W9 whole entry): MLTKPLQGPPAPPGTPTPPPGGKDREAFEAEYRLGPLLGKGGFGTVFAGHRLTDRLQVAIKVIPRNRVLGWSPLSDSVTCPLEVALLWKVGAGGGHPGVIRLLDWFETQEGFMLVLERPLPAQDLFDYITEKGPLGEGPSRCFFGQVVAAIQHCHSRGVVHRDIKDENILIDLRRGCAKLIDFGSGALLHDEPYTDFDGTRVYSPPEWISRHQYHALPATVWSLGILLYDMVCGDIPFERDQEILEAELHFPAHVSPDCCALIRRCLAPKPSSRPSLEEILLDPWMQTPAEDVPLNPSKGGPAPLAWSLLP

PKCβII(h) = PKCβII(h) (Homo sapiens, UniProt P05771); conditions: 100 μM
PKCβII(h), sequence (P05771 1-673 isoform P05771-2): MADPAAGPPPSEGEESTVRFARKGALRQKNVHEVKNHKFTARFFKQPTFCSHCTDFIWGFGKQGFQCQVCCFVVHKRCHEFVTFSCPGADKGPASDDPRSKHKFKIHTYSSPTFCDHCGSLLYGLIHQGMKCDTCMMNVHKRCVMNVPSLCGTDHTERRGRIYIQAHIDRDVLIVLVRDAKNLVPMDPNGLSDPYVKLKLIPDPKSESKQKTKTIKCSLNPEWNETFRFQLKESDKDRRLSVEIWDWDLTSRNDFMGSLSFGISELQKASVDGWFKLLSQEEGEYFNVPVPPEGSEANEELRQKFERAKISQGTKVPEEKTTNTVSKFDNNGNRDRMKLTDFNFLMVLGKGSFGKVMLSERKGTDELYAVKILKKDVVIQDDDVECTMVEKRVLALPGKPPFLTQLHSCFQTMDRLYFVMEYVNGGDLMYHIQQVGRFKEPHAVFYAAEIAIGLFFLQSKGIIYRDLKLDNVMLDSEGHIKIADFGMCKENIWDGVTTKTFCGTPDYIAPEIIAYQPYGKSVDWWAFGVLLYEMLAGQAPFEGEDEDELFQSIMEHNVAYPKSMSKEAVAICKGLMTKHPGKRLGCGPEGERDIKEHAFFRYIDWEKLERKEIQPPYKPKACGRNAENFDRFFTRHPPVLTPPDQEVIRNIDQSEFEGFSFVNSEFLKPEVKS

CaMKIIγ(h) = CaMKIIγ(h) (Homo sapiens, UniProt Q13555); conditions: 100 μM
CaMKIIγ(h), sequence (Q13555 whole entry): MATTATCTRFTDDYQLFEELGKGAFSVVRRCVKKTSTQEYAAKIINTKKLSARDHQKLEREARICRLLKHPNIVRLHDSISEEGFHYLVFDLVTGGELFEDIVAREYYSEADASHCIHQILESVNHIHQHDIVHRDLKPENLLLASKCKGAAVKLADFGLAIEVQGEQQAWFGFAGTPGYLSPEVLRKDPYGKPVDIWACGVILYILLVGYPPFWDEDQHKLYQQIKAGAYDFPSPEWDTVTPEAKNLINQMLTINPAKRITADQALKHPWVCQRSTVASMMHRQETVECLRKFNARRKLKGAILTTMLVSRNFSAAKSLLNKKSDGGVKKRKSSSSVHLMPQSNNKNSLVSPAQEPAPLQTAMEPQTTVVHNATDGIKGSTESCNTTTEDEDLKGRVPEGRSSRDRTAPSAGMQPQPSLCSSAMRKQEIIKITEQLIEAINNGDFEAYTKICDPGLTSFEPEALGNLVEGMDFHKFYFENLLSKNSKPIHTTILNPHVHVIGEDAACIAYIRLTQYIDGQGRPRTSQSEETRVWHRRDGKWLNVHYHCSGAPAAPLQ

Pim-3(h) = Pim-3(h) (Homo sapiens, UniProt Q86V86); conditions: 100 μM
PKBβ(h) = PKBβ(h) (Homo sapiens, UniProt P31751); conditions: 100 μM
PKBβ(h), sequence (P31751 whole entry): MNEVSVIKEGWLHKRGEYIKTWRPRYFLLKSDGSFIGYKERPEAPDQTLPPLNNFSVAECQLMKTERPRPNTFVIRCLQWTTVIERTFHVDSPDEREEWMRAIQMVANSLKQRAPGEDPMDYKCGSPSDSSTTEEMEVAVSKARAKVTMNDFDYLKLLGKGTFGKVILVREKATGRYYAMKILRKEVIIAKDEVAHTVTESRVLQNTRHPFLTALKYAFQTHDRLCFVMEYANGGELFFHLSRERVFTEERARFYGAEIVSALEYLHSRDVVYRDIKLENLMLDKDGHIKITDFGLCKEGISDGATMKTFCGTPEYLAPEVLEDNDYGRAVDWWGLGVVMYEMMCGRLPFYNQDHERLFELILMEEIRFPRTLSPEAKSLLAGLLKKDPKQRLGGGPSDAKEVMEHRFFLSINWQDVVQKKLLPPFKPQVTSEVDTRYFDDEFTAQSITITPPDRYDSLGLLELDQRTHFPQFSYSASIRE

Ron(h) = Ron(h) (Homo sapiens, UniProt Q04912); conditions: 100 μM
Met(D1246N)(h) = Met(D1246N)(h) (Homo sapiens, UniProt P08581, D1228N); conditions: 100 μM
PRAK(h) = biological target: T1, PRAK(h) (Homo sapiens, UniProt Q8IW41)
T1 sequence (Q8IW41 1-473): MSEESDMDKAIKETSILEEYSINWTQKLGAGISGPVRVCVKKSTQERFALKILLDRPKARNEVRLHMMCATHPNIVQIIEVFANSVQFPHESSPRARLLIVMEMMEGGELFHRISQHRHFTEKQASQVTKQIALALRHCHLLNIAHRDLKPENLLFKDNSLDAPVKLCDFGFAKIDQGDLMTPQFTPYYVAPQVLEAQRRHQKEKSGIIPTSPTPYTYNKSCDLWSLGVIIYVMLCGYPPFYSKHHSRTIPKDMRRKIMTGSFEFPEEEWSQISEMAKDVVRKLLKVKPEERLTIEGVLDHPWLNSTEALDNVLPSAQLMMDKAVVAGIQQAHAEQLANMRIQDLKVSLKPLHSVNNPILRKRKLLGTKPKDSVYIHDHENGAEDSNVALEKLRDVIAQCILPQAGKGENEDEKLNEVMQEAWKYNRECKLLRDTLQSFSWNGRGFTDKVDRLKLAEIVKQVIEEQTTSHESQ

TBK1(h) = biological target: T2, TBK1(h) (Homo sapiens, UniProt Q9UHD2); conditions: 100 μM
T2 sequence (Q9UHD2 1-729): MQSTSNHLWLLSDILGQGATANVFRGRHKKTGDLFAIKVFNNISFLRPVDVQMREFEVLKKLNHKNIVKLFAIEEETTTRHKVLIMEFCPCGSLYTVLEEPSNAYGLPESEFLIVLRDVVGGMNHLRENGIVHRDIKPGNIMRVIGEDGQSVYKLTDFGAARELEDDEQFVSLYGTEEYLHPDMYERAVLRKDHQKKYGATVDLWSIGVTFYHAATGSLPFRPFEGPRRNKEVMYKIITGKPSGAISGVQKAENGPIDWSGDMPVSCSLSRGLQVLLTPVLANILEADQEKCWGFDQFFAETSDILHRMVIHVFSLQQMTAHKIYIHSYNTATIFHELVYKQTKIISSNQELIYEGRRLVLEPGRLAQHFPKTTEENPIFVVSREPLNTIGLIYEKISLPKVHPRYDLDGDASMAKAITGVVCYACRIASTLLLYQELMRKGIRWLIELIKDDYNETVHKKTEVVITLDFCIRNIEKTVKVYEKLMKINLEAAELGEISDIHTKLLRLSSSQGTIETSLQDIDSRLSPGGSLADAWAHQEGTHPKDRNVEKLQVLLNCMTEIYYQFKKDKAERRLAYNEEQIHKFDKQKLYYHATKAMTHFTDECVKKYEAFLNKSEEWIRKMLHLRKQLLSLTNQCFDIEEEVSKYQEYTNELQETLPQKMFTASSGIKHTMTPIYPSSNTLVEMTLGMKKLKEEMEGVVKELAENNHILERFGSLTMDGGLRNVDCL

JNK3(h) = JNK3(h) (Homo sapiens, UniProt P53779); conditions: 100 μM
Met(M1268T)(h) = Met(M1268T)(h) (Homo sapiens, UniProt P08581, M1250T); conditions: 100 μM
PKCα(h) = PKCα(h) (Homo sapiens, UniProt P17252); conditions: 100 μM
PDGFRα(h) = PDGFRα(h) (Homo sapiens, UniProt P16234); conditions: 100 μM
PDGFRα(h), sequence (P16234 24-1089): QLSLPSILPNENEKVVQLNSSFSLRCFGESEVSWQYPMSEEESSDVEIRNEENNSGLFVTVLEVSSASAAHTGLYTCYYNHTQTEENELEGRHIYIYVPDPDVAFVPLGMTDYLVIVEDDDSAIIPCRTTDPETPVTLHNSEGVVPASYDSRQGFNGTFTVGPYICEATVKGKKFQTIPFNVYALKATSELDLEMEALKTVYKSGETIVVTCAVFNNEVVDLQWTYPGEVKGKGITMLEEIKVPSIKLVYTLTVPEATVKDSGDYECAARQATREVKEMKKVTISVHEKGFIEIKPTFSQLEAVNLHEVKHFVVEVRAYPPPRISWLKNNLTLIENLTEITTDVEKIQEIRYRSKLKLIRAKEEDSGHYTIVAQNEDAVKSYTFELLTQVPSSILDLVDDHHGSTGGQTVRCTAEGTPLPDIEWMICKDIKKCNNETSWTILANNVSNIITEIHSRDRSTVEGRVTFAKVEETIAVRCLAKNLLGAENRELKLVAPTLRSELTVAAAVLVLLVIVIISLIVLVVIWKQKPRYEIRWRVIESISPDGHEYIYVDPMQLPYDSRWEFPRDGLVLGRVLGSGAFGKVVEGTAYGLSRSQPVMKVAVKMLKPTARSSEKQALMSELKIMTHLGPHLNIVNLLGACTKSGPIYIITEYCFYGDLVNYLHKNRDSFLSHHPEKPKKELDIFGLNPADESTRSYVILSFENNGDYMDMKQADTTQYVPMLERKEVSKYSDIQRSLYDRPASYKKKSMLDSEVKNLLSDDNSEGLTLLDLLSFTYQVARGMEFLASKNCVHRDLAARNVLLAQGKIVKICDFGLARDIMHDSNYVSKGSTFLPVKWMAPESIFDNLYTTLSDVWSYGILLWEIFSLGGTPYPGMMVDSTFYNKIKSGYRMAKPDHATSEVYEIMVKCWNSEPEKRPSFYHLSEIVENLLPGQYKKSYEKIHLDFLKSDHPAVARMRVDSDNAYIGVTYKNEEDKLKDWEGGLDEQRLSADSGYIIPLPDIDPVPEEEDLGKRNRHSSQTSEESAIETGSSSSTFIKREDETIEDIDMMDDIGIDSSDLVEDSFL

PKCθ(h) = PKCθ(h) (Homo sapiens, UniProt Q04759); conditions: 100 μM
Flt4(h) = Flt4(h) (Homo sapiens, UniProt P35916)

Lyn(h), sequence (P07948 whole entry): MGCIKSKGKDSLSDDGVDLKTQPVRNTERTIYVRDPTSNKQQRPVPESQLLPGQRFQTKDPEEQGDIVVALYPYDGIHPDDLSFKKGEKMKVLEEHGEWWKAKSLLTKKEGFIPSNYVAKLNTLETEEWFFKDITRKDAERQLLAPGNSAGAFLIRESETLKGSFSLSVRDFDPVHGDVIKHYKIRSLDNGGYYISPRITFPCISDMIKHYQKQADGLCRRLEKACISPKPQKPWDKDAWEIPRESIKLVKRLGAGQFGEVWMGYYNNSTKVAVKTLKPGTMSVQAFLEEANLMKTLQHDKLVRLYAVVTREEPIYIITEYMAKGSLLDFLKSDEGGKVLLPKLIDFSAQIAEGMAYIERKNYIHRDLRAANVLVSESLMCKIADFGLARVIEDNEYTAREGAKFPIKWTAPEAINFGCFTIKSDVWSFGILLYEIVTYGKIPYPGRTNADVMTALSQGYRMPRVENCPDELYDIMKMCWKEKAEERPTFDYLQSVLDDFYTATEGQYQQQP
NEK7(h), sequence (Q8TDX7 whole entry): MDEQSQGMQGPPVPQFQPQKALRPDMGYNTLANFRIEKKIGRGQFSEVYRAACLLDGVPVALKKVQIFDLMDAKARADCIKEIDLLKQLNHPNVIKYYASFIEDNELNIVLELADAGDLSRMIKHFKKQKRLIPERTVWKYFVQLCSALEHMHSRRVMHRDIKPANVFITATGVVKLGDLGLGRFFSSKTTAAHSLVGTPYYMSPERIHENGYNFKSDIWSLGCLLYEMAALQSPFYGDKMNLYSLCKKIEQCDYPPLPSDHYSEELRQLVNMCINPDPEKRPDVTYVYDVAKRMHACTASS

## HRRIKAWLKKIKALARQLGVAA (Mammalian) [MMI-0500]
Lyn(h)
  % activity: 31%
BTK(R28H)(h); 100 μM
  % activity: 10%
NEK7(h)
  % activity: 89%
Flt3(D835Y)(h); 100 μM
  % activity: 65%
Pim-2(h)
  % activity: 46%
PKCβII(h)
  % activity: 3%
CaMKIIγ(h)
  % activity: 3%
Pim-3(h)
  % activity: 37%
PKBβ(h)
  % activity: 21%
Ron(h)
  % activity: 46%
Met(D1246N)(h)
  % activity: 90%
PRAK(h); 100 μM
  % activity: 95%
TBK1(h)
  % activity: 16%
JNK3(h)
  % activity: 171%
Met(M1268T)(h)
  % activity: 239%
PKCα(h)
  % activity: 3%
PDGFRα(h)
  % activity: 40%
PKCθ(h)
  % activity: 62%
Flt4(h); 100 μM
  % activity: 73%

## YARAAARQARAKALNRQLGVA (Mammalian) [MMI-0200]
Lyn(h)
  % activity: 98%
NEK7(h)
  % activity: 96%
Pim-2(h)
  % activity: 74%
PKCβII(h)
  % activity: 100%
CaMKIIγ(h)
  % activity: 94%
Pim-3(h)
  % activity: 94%
PKBβ(h)
  % activity: 250%
Ron(h)
  % activity: 120%
Met(D1246N)(h)
  % activity: 149%
TBK1(h)
  % activity: 98%
JNK3(h)
  % activity: 90%
Met(M1268T)(h)
  % activity: 143%
PKCα(h)
  % activity: 100%
PDGFRα(h)
  % activity: 108%
PKCθ(h)
  % activity: 101%

## H-YARAAARQARAKALARQLGVAA-OH [MMI-0100]
BTK(R28H)(h)
  activity at 100 µM: 91%
Flt3(D835Y)(h)
  activity at 100 µM: 120%
PRAK(h)
  activity at 100 µM: 159%
Flt4(h)
  activity at 100 µM: 135%
